Test results from patent publication US20150344570A1 (published 2015).

B1: GpH7-A5/GpH7-B3 variant L328_11K/GpL16-k0 (antibody, human IgG1, kappa)
heavy 1: not shown
heavy 2: not shown
light: DIVMTQSPLSLPVTPGEPASISCQASESLVHSNRNTYLHWYLQKPGQSPQLLIYKVSNRFSGVPDRFSGSGSGTDFTLKISRVEAEDVGVYYCSQNTHVPPTFGQGTKVEIERTVAAPSVFIFPPSDEQLKSGTASVVCLLNNFYPREAKVQWKVDNALQSGNSQESVTEQDSKDSTYSLSSTLTLSKADYEKHKVYACEVTHQGLSSPVTKSFNRGEC
notes: He Ab; mutation in the GpH7-B3 chain only; also called He Ab
B2: GpH7-A5/GpH7-B3 variant E269_01G/GpL16-k0 (antibody, human IgG1, kappa)
heavy 1: not shown
heavy 2: not shown
light: B1 light
notes: heterodimerized anti-glypican-3 IgG1; alteration in one H chain only; also called He Ab
B3: GpH7-A5/GpH7-B3 variant S267_18N/GpL16-k0 (antibody, human IgG1, kappa)
heavy 1: not shown
heavy 2: not shown
light: B1 light
notes: Alteration in one H chain only; also called He Ab S267_18N
B4: GpH7-A5/GpH7-B3 variant S298_09D/GpL16-k0 (antibody, human IgG1, kappa)
heavy 1: not shown
heavy 2: not shown
light: B1 light
notes: Alteration in one H chain only; also called He Ab S298_09D
B5: GpH7-A5/GpH7-B3 variant Y296_08L/GpL16-k0 (antibody, human IgG1, kappa)
heavy 1: not shown
heavy 2: not shown
light: B1 light
notes: Alteration in one H chain only; also called He Ab Y296_08L
B6: GpH7-A5/GpH7-B3 variant Y300_07I/GpL16-k0 (antibody, human IgG1, kappa)
heavy 1: not shown
heavy 2: not shown
light: B1 light
notes: Alteration in one H chain only; also called He Ab Y300_07I
B7: GpH7-A5/GpH7-B3 variant S337_11K/GpL16-k0 (antibody, human IgG1, kappa)
heavy 1: not shown
heavy 2: not shown
light: B1 light
notes: Alteration in one H chain only; also called He Ab S337_11K
B8: GpH7-A5/GpH7-B3 variant Y296_02A/GpL16-k0 (antibody, human IgG1, kappa)
heavy 1: not shown
heavy 2: not shown
light: B1 light
notes: Alteration in one H chain only; also called He Ab Y296_02A
B9: GpH7-A5/GpH7-B3 variant Q295_12R/GpL16-k0 (antibody, human IgG1, kappa)
heavy 1: not shown
heavy 2: not shown
light: B1 light
notes: Alteration in one H chain only; also called He Ab Q295_12R
B10: GpH7-A5/GpH7-B3 variant P271_08L/GpL16-k0 (antibody, human IgG1, kappa)
heavy 1: not shown
heavy 2: not shown
light: B1 light
notes: Alteration in one H chain only; also called He Ab P271_08L
B11: GpH7-A5/GpH7-B3 variant S267_06M/GpL16-k0 (antibody, human IgG1, kappa)
heavy 1: not shown
heavy 2: not shown
light: B1 light
notes: Alteration in one H chain only; also called He Ab S267_06M
B12: GpH7-A5/GpH7-B3 variant S324_09D/GpL16-k0 (antibody, human IgG1, kappa)
heavy 1: not shown
heavy 2: not shown
light: B1 light
notes: Alteration in one H chain only; also called He Ab S324_09D
B13: GpH7-A5/GpH7-B3 variant S324_10E/GpL16-k0 (antibody, human IgG1, kappa)
heavy 1: not shown
heavy 2: not shown
light: B1 light
notes: Alteration in one H chain only; also called He Ab S324_10E
B14: GpH7-A5/GpH7-B3 variant E269_02A/GpL16-k0 (antibody, human IgG1, kappa)
heavy 1: not shown
heavy 2: not shown
light: B1 light
notes: as for B2
B15: GpH7-A5/GpH7-B3 variant D265_12R/GpL16-k0 (antibody, human IgG1, kappa)
heavy 1: not shown
heavy 2: not shown
light: B1 light
notes: as for B2
B16: GpH7-A5/GpH7-B3 variant P271_18N/GpL16-k0 (antibody, human IgG1, kappa)
heavy 1: not shown
heavy 2: not shown
light: B1 light
notes: Alteration in one H chain only; also called He Ab P271_18N
B17: GpH7-A5/GpH7-B3 variant S267_19Q/GpL16-k0 (antibody, human IgG1, kappa)
heavy 1: not shown
heavy 2: not shown
light: B1 light
notes: Alteration in one H chain only; also called He Ab S267_19Q
B18: GpH7-A5/GpH7-B3 variant D265_10E/GpL16-k0 (antibody, human IgG1, kappa)
heavy 1: not shown
heavy 2: not shown
light: B1 light
notes: as for B2
B19: GpH7-A5/GpH7-B3 variant Y296_03V/GpL16-k0 (antibody, human IgG1, kappa)
heavy 1: not shown
heavy 2: not shown
light: B1 light
notes: Alteration in one H chain only; also called He Ab Y296_03V
B20: GpH7-A5/GpH7-B3 variant S239_10E/GpL16-k0 (antibody, human IgG1, kappa)
heavy 1: not shown
heavy 2: not shown
light: B1 light
notes: Alteration in one H chain only; also called He Ab S239_10E

Legend:
FcγRIa [1] = molecular target: T1, FcγRIa (human, UniProt P12314 16-292); assay: ratio of He/Con_1a to He/Con_2b (FcγRIa over FcγRIIb), SPR
T1 construct: extracellular domain; also called FcgRI; CD64
Experimental: (§1) The heterodimerized antibodies He Abs in which one of the H chains was introduced with an alteration were assayed for their binding activities to each activating FcγR and inhibitory FcγR according to the method described in Example 4. […] The activating FcγRs in FIGS. 26, 27, 28, and 29 are FcγRIa, FcγRIIa (R), FcγRIIa (H), and FcγRIIIa, respectively.
(§2) Analysis of interaction between objective antibody and the FcγR was carried out using Biacore T100 (GE Healthcare). HBS-EP+ (GE Healthcare) was used as the running buffer, and the measurement temperature was set to 25° C. Chips produced by immobilizing the antigen peptide by the amine coupling method to a Series S Sencor Chip CM5 (GE Healthcare), or alternatively, chips produced by allowing preliminarily biotinylated antigen peptides to interact with and immobilize onto a Series S Sensor Chip SA (certified) (GE Healthcare) were used. Antibodies of interest were captured onto an antigen peptide-immobilized chip, and allowed to interact to each FcγR diluted with running buffer. To regenerate and repeatedly use the chip, the antibodies captured on the chip were washed off by reacting 10 mM glycine-HCl, pH 1.5.
T1 sequence (P12314 16-292): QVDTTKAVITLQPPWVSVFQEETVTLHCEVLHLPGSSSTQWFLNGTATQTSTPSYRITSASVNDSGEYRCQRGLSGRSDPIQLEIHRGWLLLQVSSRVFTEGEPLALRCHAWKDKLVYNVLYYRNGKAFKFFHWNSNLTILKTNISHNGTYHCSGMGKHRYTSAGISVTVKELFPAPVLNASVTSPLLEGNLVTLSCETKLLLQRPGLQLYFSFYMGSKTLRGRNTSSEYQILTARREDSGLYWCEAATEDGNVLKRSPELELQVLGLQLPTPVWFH

FcγRIa [2] = molecular target: T1, FcγRIa; assay: SPR (Biacore), captured antibody, soluble FcγR; relative to GpH7-A5/GpH7-B3/GpL16-k0 = 100
Experimental: as §1, §2

FcγRIIa R [3] = molecular target: T2, FcγRIIa R (human, UniProt P12318 34-217); assay: SPR (Biacore), captured antibody, FcγR as analyte; relative binding, control GpH7-A5/GpH7-B3/GpL16-k0 = 100
T2 construct: extracellular domain; also called FcgRIIa R type; 2aR
T2 sequence (looked up): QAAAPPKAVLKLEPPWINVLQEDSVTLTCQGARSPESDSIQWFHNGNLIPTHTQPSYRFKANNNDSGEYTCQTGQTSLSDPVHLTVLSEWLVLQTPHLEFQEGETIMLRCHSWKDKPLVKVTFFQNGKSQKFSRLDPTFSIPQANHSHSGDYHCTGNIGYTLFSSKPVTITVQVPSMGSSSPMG
Experimental: as §1, §2

FcγRIIb = molecular target: T3, FcγRIIb (human, UniProt P31994 43-217); assay: as above
T3 construct: extracellular domain; also called FcgRIIb; 2b
T3 sequence (looked up): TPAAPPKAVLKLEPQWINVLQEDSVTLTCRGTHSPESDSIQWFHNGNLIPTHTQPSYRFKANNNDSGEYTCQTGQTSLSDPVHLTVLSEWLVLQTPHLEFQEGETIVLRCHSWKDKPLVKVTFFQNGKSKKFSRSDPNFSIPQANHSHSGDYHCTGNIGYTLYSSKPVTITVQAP
Experimental: as §1, §2

FcγRIIa R [4] = molecular target: T2, FcγRIIa R; assay: SPR (Biacore); He/Con_2aR divided by He/Con_2b (FcγRIIa R over FcγRIIb)
FcγRIa [5] = molecular target: T4, FcγRIa (human, UniProt P12314 16-292); assay: SPR (Biacore), relative binding; control HeCon Ab GpH7-A5/GpH7-B3/GpL16-k0
T4 construct: extracellular domain; also called FcgRI; FcgRIa; not shown: His tag attached to the C terminus
T4 sequence (P12314 16-292): as the sequence (P12314 16-292) above

| Binder | He/Con_1a (FcγRIa [5]) | other results |
| --- | --- | --- |
| B1 |  | He_1a/2b (Ia/IIb) (FcγRIa [1]): 10.5; He/Con_1a (FcγRIa [2]): 79.2 % of control |
| B2 |  | He/Con_2aR (FcγRIIa R [3]): 65.3 control = 100; He/Con_2b (FcγRIIb): 51.5 control = 100; He_2aR/2b (IIaR/IIb) (FcγRIIa R [4]): 1.27 ratio |
| B3 | 102 % of control (=100) |  |
| B4 | 106 % of control (=100) |  |
| B5 | 104 % of control (=100) |  |
| B6 | 108 % of control (=100) |  |
| B7 | 104 % of control (=100) |  |
| B8 | 103 % of control (=100) |  |
| B9 | 100 % of control (=100) |  |
| B10 | 102 % of control (=100) |  |
| B11 | 106 % of control (=100) |  |
| B12 | 104 % of control (=100) |  |
| B13 | 105 % of control (=100) |  |
| B14 |  | He/Con_2aR (FcγRIIa R [3]): 65.3 control = 100; He/Con_2b (FcγRIIb): 49.9 control = 100; He_2aR/2b (IIaR/IIb) (FcγRIIa R [4]): 1.31 ratio |
| B15 |  | He/Con_2aR (FcγRIIa R [3]): 32.2 control = 100; He/Con_2b (FcγRIIb): 15 control = 100; He_2aR/2b (IIaR/IIb) (FcγRIIa R [4]): 2.15 ratio |
| B16 | 103 % of control (=100) |  |
| B17 | 102 % of control (=100) |  |
| B18 |  | He/Con_2aR (FcγRIIa R [3]): 58.2 control = 100; He/Con_2b (FcγRIIb): 38.2 control = 100; He_2aR/2b (IIaR/IIb) (FcγRIIa R [4]): 1.52 ratio |
| B19 | 104 % of control (=100) |  |
| B20 | 105 % of control (=100) |  |
